From patent US20160031986A1 come the findings set out here.

The target of experiment [1] is cynomolgus monkey DLL4 extracellular domain (cynomolgus monkey). Description: Biacore SPR; head says nM, kd/ka gives M. On the technique in general: In SPR one partner is held on a chip, and binding of the other changes the refractive index at the surface.
The target is the same in experiment [2]. Nature of the experiment: Biacore SPR.
The target is the same in experiment [3]. Nature of the experiment: binding ELISA. (ELISA stands for enzyme-linked immunosorbent assay.)

B1: h1A11.1 (antibody, V domains shown)
VH: EVQLVESGGGLVQPGGSLRLSCAASGFTFSNFPMAWVRQAPGKGLEWVATISSSDGTTYYRDSVKGRFTISRDNAKNSLYLQMNSLRAEDTAVYYCARGYYNSPFAYWGQGTLVTVSS
VL: DIQMTQSPSSLSASVGDRVTITCRASEDIYSNLAWYQQKPGKAPKLLIYDTNNLADGVPSRFSGSGSGTDFTLTISSLQPEDFATYYCQQYNNYPPTFGQGTKLEIKR
With B1, the Kd (as a rule, the concentration at which binding is half-saturated) in experiment [1] is 18 nM. For the same molecule, in experiment [2], the koff (in general, the first-order rate constant of dissociation) amounted to 0.00255 s⁻¹ and the association rate constant (kon) (in general, the second-order rate constant of association) came to 144000 M⁻¹ s⁻¹. In addition, the concentration for a half-maximal effect (EC50) (usually the midpoint of the concentration-response curve) in experiment [3] came out at 0.13 nM.

B2: h1A11.A12 (antibody, V domains shown)
VH: EVQLVESGGGLVQPGGSLRLSCAASGFTFSNFPMAWVRQAPGKGLEWVATISSSDGTTYYRDSVKGRFTISRDNAKNSLYLQMNSLRAEDTAVYYCARGYYNSPFAYWGQGTLVTVSS
VL: DIQMTQSPSSLSASVGDRVTITCRASQDIYYNLAWYQQKPGKSPKLLIFDTSSLADGVPSRFSGSGSGTDFTLTISSLQPEDFATYFCQQYDWYPPTFGQGTKLEIK
As to B2, in experiment [1], the Kd was found to be 10 nM. In addition, in experiment [2], the off-rate constant (koff) was determined as 0.00162 s⁻¹ and the kon is 158000 M⁻¹ s⁻¹.

B3: h1A11.A7 (antibody, V domains shown)
VH: EVQLVESGGGLVQPGGSLRLSCAASGFTFSNFPMAWVRQAPGKGLEWVATISSSDGTTYYRDSVKGRFTISRDNAKNSLYLQMNSLRAEDTAVYYCARGYYNSPFAYWGQGTLVTVSS
VL: DIQMTQSPSSLSASVGDRVTITCRASQDIYINLAWYQQKPGKAPKLLIFDTSDLADGVPSRFSGSGSGTDFTLTISSLQPEDFATYYCQQYDYYPPTFGQGTKLEIK
For the molecule B3, in experiment [1], the dissociation constant Kd came to 7.8 nM. For the same molecule, in experiment [2], the koff is 0.00124 s⁻¹ and the kon was 158000 M⁻¹ s⁻¹.
